The text below walks through data of patent US20040001839A1, “Multimers - isolated molecules comprising epitopes containing sulfated moieties, antibodies to such epitopes, and uses thereof” (priority 2000, published 2004).

One assay relates to washed platelets. Briefly: Ristocetin-induced agglutination of washed platelets (scFv). It is filed as cell-based, human. The method, then:
Aggregation is determined in PRP due to the presence of thrombotic agents, while agglutination is determined in washed platelets. The effect of Y1 (scFv) on agglutination of washed platelets was tested at various concentrations of Y1. Platelets were pre-incubated with Y1 scFv, Y17 scFv, Y16-scFv, or a control TM-1 scFv for 4 min at 37° C. before being exposed to ristocetin, an inducer of platelet agglutination and aggregation.
Platelet concentrate in acid-citrate-dextrose (ACD) was obtained from a blood bank, platelets were isolated, washed once in buffer containing ACD and saline in a ratio of 1:7. The platelets were centrifuged at 800 g for 10 min after each wash and were resuspended in Tyrodes solution (2 mM MgCl2, 137 mM NaCl, 2.68 mM KCl, 3 mM NaH2PO4, 0.1% glucose, 5 mM Hepes and 0.35% albumin, pH 7.35) and count the number of cells.
(§1) For platelet aggregation studies, platelet rich plasma (PRP) and washed platelets were stirred at 500 rpm at 37° C. in whole blood Lumiaggregometer (Chronolog, Havertown, Pa.). The difference in light transmission through the platelet suspension and suspending medium was taken as 100% aggregation. The effect of Y1 on platelet aggregation was evaluated by addition of different concentration of Y1 before the addition of agonist, and the effect was recorded for four minutes.
The effect of Y17-scFv on vWF-dependent agglutination of platelets was tested at different concentrations of Y17.

Assay [1] concerns platelet-rich-plasma (PRP). Briefly: Ristocetin-induced aggregation of platelet-rich plasma (scFv). Particulars: scFv 38 μg/ml, 100% = ristocetin treatment. The class given is cell-based, human. The method, then: The effect of Y1 (scFv) on aggregation of platelet-rich-plasma (PRP) was tested at various concentrations of Y1. PRP was pre-incubated with Y1 scFv, Y17 scFv, or a control sTM-1cFv for 4 min at 37° C. before being exposed to ristocetin, an inducer of platelet agglutination and aggregation. A reversible inhibitory effect was observed when scFv was added to PRP prior to the addition of ristocetin, and it was dose dependent.
Blood was collected into a tube containing 3.8% sodium citrate. Platelet-rich plasma was prepared by centrifugation at 250×g for 10 minutes.
as §1

The next assay has as its system Jurkat cells. Briefly: FACS binding of Y1-cys monomer and dimer to Jurkat cells. The arrangement: species or system human. From the text:
The present invention is directed to Y1 and Y17 multimers prepared by any known method in the art. A preferred method of forming multimers, and especially dimers, employs the use of cysteine residues to form disulfide bonds between two monomers. In this embodiment, dimers are formed by adding a cysteine on the carboxyl terminus of the scFvs (referred to as Y1-cys scFv or Y1 dimer) in order to facilitate dimer formation. After the DNA construct was made (See Example 2D and 6D) and used for transfection, Y1 dimers were expressed in a production vector and refolded in vitro. The protein was analyzed by SDS-PAGE, HPLC, and FACS. […] Thus, the process was repeated and this time, two-liter fermentation batches of the antibodies were run. After expressing Y1-cys in E. coli strain BL21, refolding was done in arginine. Following refolding, the protein was dialyzed and purified by Q-sepharose and gel filtration (sephadex 75). Two peaks were detected by SDS-PAGE (non-reduced) and by gel filtration. The peaks were collected separately and analyzed by FACS. Monomer and dimer binding to Jurkat cells was checked by FACS. […] Conditions for dimer refolding were determined, and material comprising >90% dimers (mg quantities) was produced after subsequent dialysis, chromatographic, and gel filtration steps. […]

For assay [2], the system named is KG-1 cells. Briefly: Binding competition experiments on KG-1 cells (monomer, dimer, Y1 IgG). The arrangement: species or system human. Particulars: as analyzed by radioreceptor assay, ELISA or FACS. From the text: To compare the binding of the scFv monomer (also referred to as CONY1) with the Y1 dimer, binding competition experiments were done in vitro on KG-1 cells. In addition, these experiments also compared the binding of the full Y1 IgG to the scFv Y1 monomers. To perform this study, a Y1 IgG was labeled with biotin.

Assay [3] concerns KG-1 cells. Briefly: FACS of Y1-biotag and Y1-biotag/streptavidin-PE tetramers on KG-1 cells. The class given is binding, human. The method, then: In a preferred method, tetramers are formed via a biotin/streptavidin association. A novel fermentation construct that is capable of being enzymatically labeled with biotin (referred to herein as Y1-biotag or Y1-B) was created. A sequence that is a substrate for the BirA enzyme was added at the Y1 C-terminus. The BirA enzyme adds a biotin to the lysine residue within the sequence. Y1-biotag was expressed in E. coli. The inclusion body material was isolated and refolded. The purity of the folded protein was >95%, and >100 mg were obtained from a 1-L culture (small-scale, non-optimized conditions). […] Nevertheless, this construct offered the advantage of specific biotinylation in which the binding site of the molecule remains intact. Further, each molecule is labeled by only one biotin—each molecule receives one biotin on the carboxyl end.
Limiting labeling to one biotin/molecule in a desired location enabled production of tetramers with streptavidin. The tetramers were formed by incubating Y1-B with steptavidin-PE.
Y1-biotag tetramers with streptavidin-PE appear to specifically bind to one of the Y1-reactive cell lines (KG-1). The differential of this reaction, from background binding, was very high, and offered high sensitivity to detect low amounts of receptor. […] Monocytes and granulocytes were positive to a small extent. […]

B1: Y17 scFv: second scFv clone binding platelets and myelogenous leukemia cell lines; SEQ ID NO:203, CDR3 SEQ ID NO:20 (protein, listed as Homo sapiens)
scFv: MKYLLPTAAAGLLLLAAQPAMAEVQLVESGGGVVRPGGSLRLSCAASGFTFDDYGMSWVRQAPGKGLEWVSGINWNGGSTGYADSVKGRFTISRDNAKNSLYLQMNSLRAEDTAVYYCARLTHPYFWGQGTLVTVSRGGGGSGGGGSGGGGSSELTQDPAVSVALGQTVRITCQGDSLRSYYASWYQQKPGQAPVLVIYGKNNRPSGIPDRFSGSSSGNTASLTITGAQAEDEADYYCNSRDSSGNHVVFGGGTKLTVLGAAAEQKLISEEDLNGAA
With B1, the “inhibition of vWF-dependent platelet agglutination” value in the assay with washed platelets (final concentration of 10, 25 or 50 μg/ml, washed platelets, ristocetin) is listed as “did not inhibit”. The “% agglutination” value in the assay on washed platelets (scFv 25 μg/ml, 100% = ristocetin treatment) is 85%. Further, the “% inhibition” value in the assay with washed platelets (scFv 25 μg/ml, ristocetin-induced agglutination) is 15%. Moreover, the “% aggregation” value in assay [1] is recorded as 100%.

B2: Y1 dimer: disulfide dimer of Y1 scFv with a cysteine added on the carboxyl terminus (protein)
scFv 1: MEVQLVESGGGVVRPGGSLRLSCAASGFTFDDYGMSWVRQAPGKGLEWVSGINWNGGSTGYADSVKGRFTISRDNAKNSLYLQMNSLRAEDTAVYYCARMRAPVIWGQGTLVTVSRGGGGSGGGGSGGGGSSELTQDPAVSVALGQTVRITCQGDSLRSYYASWYQQKPGQAPVLVIYGKNNRPSGIPDRFSGSSSGNTASLTITGAQAEDEADYYCNSRDSSGNHVVFGGGTKLTVLGGGGCKAK
scFv 2: B2 scFv 1
Turning to B2, the “amount needed relative to the monomeric antibody for the same level of staining” value in the assay with Jurkat cells is recorded as 1/100. Besides, the “binding relative to the Y1 scFv monomer” value in the assay on KG-1 cells [2] is given as “at least 20 fold”.

B3: Y1 tetramers: tetramers formed by incubating Y1-B with streptavidin-PE (protein)
scFv 1: MEVQLVESGGGVVRPGGSLRLSCAASGFTFDDYGMSWVRQAPGKGLEWVSGINWNGGSTGYADSVKGRFTISRDNAKNSLYLQMNSLRAEDTAVYYCARMRAPVIWGQGTLVTVSRGGGGSGGGGSGGGGSSELTQDPAVSVALGQTVRITCQGDSLRSYYASWYQQKPGQAPVLVIYGKNNRPSGIPDRFSGSSSGNTASLTITGAQAEDEADYYCNSRDSSGNHVVFGGGTKLTVLGGGGLNDIFEAQKIEWHE
scFv 2: B3 scFv 1
scFv 3: B3 scFv 1
scFv 4: B3 scFv 1
modifications: left off: another chain or arm of the molecule; large carriers; small tags and cut ends
notes: tetramers formed by incubating Y1-B with streptavidin-PE
For B3, the “reactivity in positive cell lines such as KG-1” value in the assay with KG-1 cells [3] (FACS) is recorded as “at least 100 fold”. Further, the “increase of the sensitivity of the binding” value in the assay with KG-1 cells [3] (complexes with Streptavidin-PE, FACS on KG-1 cells) was “at least 100 fold”.
